Measurements as given in IntAct's records for PubMed 31515488.

B1: Vacuolar protein sorting-associated protein 4B (Homo sapiens), O75351 (parent)
chain: MSSTSPNLQKAIDLASKAAQEDKAGNYEEALQLYQHAVQYFLHVVKYEAQGDKAKQSIRAKCTEYLDRAEKLKEYLKNKEKKAQKPVKEGQPSPADEKGNDSDGEGESDDPEKKKLQNQLQGAIVIERPNVKWSDVAGLEGAKEALKEAVILPIKFPHLFTGKRTPWRGILLFGPPGTGKSYLAKAVATEANNSTFFSISSSDLVSKWLGESEKLVKNLFQLARENKPSIIFIDEIDSLCGSRSENESEAARRIKTEFLVQMQGVGVDNDGILVLGATNIPWVLDSAIRRRFEKRIYIPLPEPHARAAMFKLHLGTTQNSLTEADFRELGRKTDGYSGADISIIVRDALMQPVRKVQSATHFKKVRGPSRADPNHLVDDLLTPCSPGDPGAIEMTWMDVPGDKLLEPVVSMSDMLRSLSNTKPTVNEHDLLKLKKFTEDFGQEG
B2: Zinc finger CCCH-type with G patch domain-containing protein (Homo sapiens), Q8N5A5 (parent)
chain: MDEESLESALQTYRAQLQQVELALGAGLDSSEQADLRQLQGDLKELIELTEASLVSVRKSSLLAALDEERPGRQEDAEYQAFREAITEAVEAPAAARGSGSETVPKAEAGPESAAGGQEEEEGEDEEELSGTKVSAPYYSSWGTLEYHNAMVVGTEEAEDGSAGVRVLYLYPTHKSLKPCPFFLEGKCRFKENCRFSHGQVVSLDELRPFQDPDLSSLQAGSACLAKHQDGLWHAARITDVDNGYYTVKFDSLLLREAVVEGDGILPPLRTEATESDSDSDGTGDSSYARVVGSDAVDSAQSSALCPSLAVVGSDAVDSGTCSSAFAGWEVHTRGIGSRLLTKMGYEFGKGLGRHAEGRVEPIHAVVLPRGKSLDQCVETLQKQTRVGKAGTNKPPRCRGRGARPGGRPAPRNVFDFLNEKLQGQAPGALEAGAAPAGRRSKDMYHASKSAKRALSLRLFQTEEKIERTQRDIRSIQEALARNAGRHSVASAQLQEKLAGAQRQLGQLRAQEAGLQQEQRKADTHKKMTEF
partner: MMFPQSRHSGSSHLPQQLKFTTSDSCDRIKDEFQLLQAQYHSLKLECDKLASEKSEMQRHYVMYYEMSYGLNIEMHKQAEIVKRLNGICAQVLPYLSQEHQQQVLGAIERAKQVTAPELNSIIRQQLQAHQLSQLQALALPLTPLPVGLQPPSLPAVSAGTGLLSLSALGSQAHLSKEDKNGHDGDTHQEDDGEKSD
B3: DNA replication complex GINS protein PSF2 (Homo sapiens), Q9Y248 (parent)
chain: MDAAEVEFLAEKELVTIIPNFSLDKIYLIGGDLGPFNPGLPVEVPLWLAINLKQRQKCRLLPPEWMDVEKLEKMRDHERKEETFTPMPSPYYMELTKLLLNHASDNIPKADEIRTLVKDMWDTRIAKLRVSADSFVRQQEAHAKLDNLTLMEINTSGTFLTQALNHMYKLRTNLQPLESTQSQDF
B4: Protein FAM9B (Homo sapiens), Q8IZU0 (parent)
chain: MAAWGKKHAGKDPVRDECEERNRFTETREEDVTDEHGEREPFAETDEHTGANTKKPEDTAEDLTAKRKRMKMDKTCSKTKNKSKHALRKKQLKRQKRDYIHSLKLLNVLEEYITDEQKEEEEEEGEEEELIRIFQEQQKKWQQYRSVRRERLKEMKLLRDQFVKALEDFEDLCDRVFSDEDSELDN
partner: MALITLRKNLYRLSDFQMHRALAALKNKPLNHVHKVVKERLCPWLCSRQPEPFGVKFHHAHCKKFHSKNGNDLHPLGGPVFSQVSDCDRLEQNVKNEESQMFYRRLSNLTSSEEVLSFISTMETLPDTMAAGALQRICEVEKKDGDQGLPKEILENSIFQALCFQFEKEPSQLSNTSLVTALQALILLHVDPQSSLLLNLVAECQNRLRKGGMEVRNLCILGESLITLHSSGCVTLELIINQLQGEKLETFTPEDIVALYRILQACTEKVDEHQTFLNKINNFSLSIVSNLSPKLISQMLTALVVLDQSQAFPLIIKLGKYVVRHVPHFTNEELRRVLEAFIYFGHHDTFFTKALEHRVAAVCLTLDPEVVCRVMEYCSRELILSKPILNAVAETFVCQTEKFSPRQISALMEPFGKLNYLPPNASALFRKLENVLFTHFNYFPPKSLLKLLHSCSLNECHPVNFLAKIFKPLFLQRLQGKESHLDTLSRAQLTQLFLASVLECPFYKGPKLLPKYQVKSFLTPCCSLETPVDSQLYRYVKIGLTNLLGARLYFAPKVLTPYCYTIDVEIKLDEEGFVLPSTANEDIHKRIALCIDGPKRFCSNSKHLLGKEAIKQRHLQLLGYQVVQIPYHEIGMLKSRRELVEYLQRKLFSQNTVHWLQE
B5: Keratin, type II cuticular Hb6 (Homo sapiens), O43790 (parent)
chain: MTCGSYCGGRAFSCISACGPRPGRCCITAAPYRGISCYRGLTGGFGSHSVCGGFRAGSCGRSFGYRSGGVCGPSPPCITTVSVNESLLTPLNLEIDPNAQCVKQEEKEQIKSLNSRFAAFIDKVRFLEQQNKLLETKLQFYQNRECCQSNLEPLFEGYIETLRREAECVEADSGRLASELNHVQEVLEGYKKKYEEEVSLRATAENEFVALKKDVDCAYLRKSDLEANVEALIQEIDFLRRLYEEEIRVLQSHISDTSVVVKLDNSRDLNMDCIIAEIKAQYDDIVTRSRAEAESWYRSKCEEMKATVIRHGETLRRTKEEINELNRMIQRLTAEVENAKCQNSKLEAAVAQSEQQGEAALSDARCKLAELEGALQKAKQDMACLIREYQEVMNSKLGLDIEIATYRRLLEGEEQRLCEGVGSVNVCVSSSRGGVVCGDLCASTTAPVVSTRVSSVPSNSNVVVGTTNACAPSARVGVCGGSCKRC
B6: Zinc finger protein Aiolos (Homo sapiens), Q9UKT9 (parent)
chain: MEDIQTNAELKSTQEQSVPAESAAVLNDYSLTKSHEMENVDSGEGPANEDEDIGDDSMKVKDEYSERDENVLKSEPMGNAEEPEIPYSYSREYNEYENIKLERHVVSFDSSRPTSGKMNCDVCGLSCISFNVLMVHKRSHTGERPFQCNQCGASFTQKGNLLRHIKLHTGEKPFKCHLCNYACQRRDALTGHLRTHSVEKPYKCEFCGRSYKQRSSLEEHKERCRTFLQSTDPGDTASAEARHIKAEMGSERALVLDRLASNVAKRKSSMPQKFIGEKRHCFDVNYNSSYMYEKESELIQTRMMDQAINNAISYLGAEALRPLVQTPPAPTSEMVPVISSMYPIALTRAEMSNGAPQELEKKSIHLPEKSVPSERGLSPNNSGHDSTDTDSNHEERQNHIYQQNHMVLSRARNGMPLLKEVPRSYELLKPPPICPRDSVKVINKEGEVMDVYRCDHCRVLFLDYVMFTIHMGCHGFRDPFECNMCGYRSHDRYEFSSHIARGEHRALLK
partner: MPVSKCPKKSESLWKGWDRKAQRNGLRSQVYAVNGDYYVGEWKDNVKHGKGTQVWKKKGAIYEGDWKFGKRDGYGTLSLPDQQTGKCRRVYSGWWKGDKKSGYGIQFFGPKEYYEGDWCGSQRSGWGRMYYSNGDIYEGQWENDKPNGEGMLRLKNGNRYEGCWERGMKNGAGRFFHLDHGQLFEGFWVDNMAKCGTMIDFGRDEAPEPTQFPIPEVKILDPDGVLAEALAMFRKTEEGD
B7: Interleukin-1 receptor-associated kinase 4 (Homo sapiens), Q9NWZ3 (parent)
chain: MNKPITPSTYVRCLNVGLIRKLSDFIDPQEGWKKLAVAIKKPSGDDRYNQFHIRRFEALLQTGKSPTSELLFDWGTTNCTVGDLVDLLIQNEFFAPASLLLPDAVPKTANTLPSKEAITVQQKQMPFCDKDRTLMTPVQNLEQSYMPPDSSSPENKSLEVSDTRFHSFSFYELKNVTNNFDERPISVGGNKMGEGGFGVVYKGYVNNTTVAVKKLAAMVDITTEELKQQFDQEIKVMAKCQHENLVELLGFSSDGDDLCLVYVYMPNGSLLDRLSCLDGTPPLSWHMRCKIAQGAANGINFLHENHHIHRDIKSANILLDEAFTAKISDFGLARASEKFAQTVMTSRIVGTTAYMAPEALRGEITPKSDIYSFGVVLLEIITGLPAVDEHREPQLLLDIKEEIEDEEKTIEDYIDKKMNDADSTSVEAMYSVASQCLHEKKNKRPDIKKVQQLLQEMTAS
B8: Leucine rich adaptor protein 1 (Homo sapiens), Q96LR2 (parent)
chain: MEGTVESQTPDLRDVEGKVGRKTPEGLLRGLRGECELGTSGALLLPGASSTGHDLGDKIMALKMELAYLRAIDVKILQQLVTLNEGIEAVRWLLEERGTLTSHCSSLTSSQYSLTGGSPGRSRRGSWDSLPDTSTTDRLDSVSIGSFLDTVAPSELDEQGPPGAPRSEMDWAKVIAGGERARTEVDVAATRLGSLRAVWKPPGERLQGGPPESPEDESAKLGFEAHWFWEQCQDDVTFL
partner: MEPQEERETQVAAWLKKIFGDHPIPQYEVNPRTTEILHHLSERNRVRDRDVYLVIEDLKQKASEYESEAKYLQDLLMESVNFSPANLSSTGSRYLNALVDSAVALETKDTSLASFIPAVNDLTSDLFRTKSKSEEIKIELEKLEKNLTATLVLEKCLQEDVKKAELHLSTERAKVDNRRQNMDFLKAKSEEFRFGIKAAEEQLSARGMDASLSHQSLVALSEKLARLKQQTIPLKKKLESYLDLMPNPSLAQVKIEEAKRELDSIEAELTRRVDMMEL
B9: AP-4 complex subunit beta-1 (Homo sapiens), Q9Y6B7 (parent)
chain: MPYLGSEDVVKELKKALCNPHIQADRLRYRNVIQRVIRYMTQGLDMSGVFMEMVKASATVDIVQKKLVYLYMCTYAPLKPDLALLAINTLCKDCSDPNPMVRGLALRSMCSLRMPGVQEYIQQPILNGLRDKASYVRRVAVLGCAKMHNLHGDSEVDGALVNELYSLLRDQDPIVVVNCLRSLEEILKQEGGVVINKPIAHHLLNRMSKLDQWGQAEVLNFLLRYQPRSEEELFDILNLLDSFLKSSSPGVVMGATKLFLILAKMFPHVQTDVLVRVKGPLLAACSSESRELCFVALCHVRQILHSLPGHFSSHYKKFFCSYSEPHYIKLQKVEVLCELVNDENVQQVLEELRGYCTDVSADFAQAAIFAIGGIARTYTDQCVQILTELLGLRQEHITTVVVQTFRDLVWLCPQCTEAVCQALPGCEENIQDSEGKQALIWLLGVHGERIPNAPYVLEDFVENVKSETFPAVKMELLTALLRLFLSRPAECQDMLGRLLYYCIEEEKDMAVRDRGLFYYRLLLVGIDEVKRILCSPKSDPTLGLLEDPAERPVNSWASDFNTLVPVYGKAHWATISKCQGAERCDPELPKTSSFAASGPLIPEENKERVQELPDSGALMLVPNRQLTADYFEKTWLSLKVAHQQVLPWRGEFHPDTLQMALQVVNIQTIAMSRAGSRPWKAYLSAQDDTGCLFLTELLLEPGNSEMQISVKQNEARTETLNSFISVLETVIGTIEEIKS
partner: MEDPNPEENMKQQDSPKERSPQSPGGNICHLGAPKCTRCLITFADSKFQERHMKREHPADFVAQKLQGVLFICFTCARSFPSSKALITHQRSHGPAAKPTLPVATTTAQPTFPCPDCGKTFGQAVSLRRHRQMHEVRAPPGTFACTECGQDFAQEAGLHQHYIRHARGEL

Variants of: B1
Conditions: with anchr_human ZFYVE19, Q96K21
Chain of anchr_human ZFYVE19, Q96K21 (Q96K21 whole entry): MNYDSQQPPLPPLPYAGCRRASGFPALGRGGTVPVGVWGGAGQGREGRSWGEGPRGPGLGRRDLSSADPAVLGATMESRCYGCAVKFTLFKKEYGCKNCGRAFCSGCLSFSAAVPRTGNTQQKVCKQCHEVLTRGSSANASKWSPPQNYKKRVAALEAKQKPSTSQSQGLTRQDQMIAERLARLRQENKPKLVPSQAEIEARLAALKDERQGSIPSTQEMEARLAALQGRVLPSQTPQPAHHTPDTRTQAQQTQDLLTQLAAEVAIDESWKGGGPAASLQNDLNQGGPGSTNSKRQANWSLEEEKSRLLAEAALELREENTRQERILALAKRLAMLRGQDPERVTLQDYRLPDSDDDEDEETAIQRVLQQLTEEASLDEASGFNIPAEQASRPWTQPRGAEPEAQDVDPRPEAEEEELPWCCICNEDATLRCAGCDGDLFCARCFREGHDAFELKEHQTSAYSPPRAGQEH

Row | Variant | effect of a mutation on the interaction
1 | I58M | with no effect

Variants of: B2
Conditions: with tle5_human TLE5, Q08117

Row | Variant | effect of a mutation on the interaction
2 | S61R | with no effect

Variants of: B3
Conditions: with sld5_human GINS4, Q9BRT9
Chain of sld5_human GINS4, Q9BRT9 (Q9BRT9 whole entry): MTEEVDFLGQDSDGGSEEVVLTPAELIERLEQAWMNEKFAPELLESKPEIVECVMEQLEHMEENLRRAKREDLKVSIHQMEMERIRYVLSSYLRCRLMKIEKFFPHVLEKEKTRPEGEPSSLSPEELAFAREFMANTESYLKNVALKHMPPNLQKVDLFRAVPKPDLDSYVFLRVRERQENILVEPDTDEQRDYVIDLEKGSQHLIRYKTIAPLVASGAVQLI

Row | Variant | effect of a mutation on the interaction
3 | I26T | with no effect
4 | L150S | with no effect
5 | T172K | with no effect
6 | D24G | with no effect

Variants of: B4
Conditions: with fakd3_human FASTKD3, Q14CZ7

Row | Variant | effect of a mutation on the interaction
7 | R23H | with no effect

Variants of: B5
Conditions: with KRT15, P19012
Chain of KRT15, P19012 (P19012 whole entry): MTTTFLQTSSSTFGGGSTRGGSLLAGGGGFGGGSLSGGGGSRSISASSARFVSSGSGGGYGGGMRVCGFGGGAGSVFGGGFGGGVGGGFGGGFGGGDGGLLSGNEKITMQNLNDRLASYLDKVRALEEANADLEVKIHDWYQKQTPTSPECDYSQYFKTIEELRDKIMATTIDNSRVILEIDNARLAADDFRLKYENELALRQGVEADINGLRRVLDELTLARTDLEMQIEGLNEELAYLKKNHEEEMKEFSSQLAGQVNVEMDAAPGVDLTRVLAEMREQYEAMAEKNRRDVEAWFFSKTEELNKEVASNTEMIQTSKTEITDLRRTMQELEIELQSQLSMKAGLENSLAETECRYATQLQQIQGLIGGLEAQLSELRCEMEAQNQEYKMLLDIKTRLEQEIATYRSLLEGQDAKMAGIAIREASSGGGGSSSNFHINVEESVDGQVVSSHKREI

Row | Variant | effect of a mutation on the interaction
8 | R327C | with no effect
9 | R408H | with no effect

Variants of: B6
Conditions: with morn3_human MORN3, Q6PF18

Row | Variant | effect of a mutation on the interaction
10 | A24V | with no effect
11 | N119D | with no effect

Variants of: B7
Conditions: with myd88_human MYD88, Q99836
Chain of myd88_human MYD88, Q99836 (Q99836 whole entry): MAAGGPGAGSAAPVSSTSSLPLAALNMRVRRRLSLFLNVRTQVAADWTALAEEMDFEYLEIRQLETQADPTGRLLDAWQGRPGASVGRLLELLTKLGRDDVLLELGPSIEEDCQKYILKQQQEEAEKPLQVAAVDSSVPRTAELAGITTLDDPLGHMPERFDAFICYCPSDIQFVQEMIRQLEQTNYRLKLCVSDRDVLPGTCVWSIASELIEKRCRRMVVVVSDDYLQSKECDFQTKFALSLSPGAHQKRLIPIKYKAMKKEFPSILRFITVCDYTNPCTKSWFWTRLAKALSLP

Row | Variant | effect of a mutation on the interaction
12 | R12H | disrupting interaction strength
13 | R12C | disrupting interaction strength
14 | T76I | disrupting interaction strength
15 | R20W | with no effect
16 | D73E | disrupting interaction strength
17 | G298D | disrupting interaction strength
18 | R391H | with no effect
19 | A428T | with no effect

Variants of: B8
Conditions: with haus1_human HAUS1, Q96CS2

Row | Variant | effect of a mutation on the interaction
20 | Q207R | with no effect
21 | M60L | with no effect

Variants of: B9
Conditions: with zn576_human ZNF576, Q9H609

Row | Variant | effect of a mutation on the interaction
22 | L480S | with no effect
